Assay results taken from PMC4533229 (Journal of Structural Biology, 2015).

T1: hLGR5_(ecto)–mRspo2_(Fu1-Fu2) complex, formed beforehand by coexpression (human | mouse, UniProt O75473 32-487; Q8BFU0 39-144)
T1 construct: as the chain of m1: vector residues; as the chain of m1: human LGR5 ectodomain, R32 up to the residue before the replaced loop A488-H537; printed ends RGCPTH...FGVCEN; as the chain of m1: linker that replaces A488-H537; as the chain of m1: human LGR5 after the replaced loop; as the chain of m1: vector residues before the His10 tag; as the chain of m2: vector residues; as the chain of m2: mouse …
T1 chain 1: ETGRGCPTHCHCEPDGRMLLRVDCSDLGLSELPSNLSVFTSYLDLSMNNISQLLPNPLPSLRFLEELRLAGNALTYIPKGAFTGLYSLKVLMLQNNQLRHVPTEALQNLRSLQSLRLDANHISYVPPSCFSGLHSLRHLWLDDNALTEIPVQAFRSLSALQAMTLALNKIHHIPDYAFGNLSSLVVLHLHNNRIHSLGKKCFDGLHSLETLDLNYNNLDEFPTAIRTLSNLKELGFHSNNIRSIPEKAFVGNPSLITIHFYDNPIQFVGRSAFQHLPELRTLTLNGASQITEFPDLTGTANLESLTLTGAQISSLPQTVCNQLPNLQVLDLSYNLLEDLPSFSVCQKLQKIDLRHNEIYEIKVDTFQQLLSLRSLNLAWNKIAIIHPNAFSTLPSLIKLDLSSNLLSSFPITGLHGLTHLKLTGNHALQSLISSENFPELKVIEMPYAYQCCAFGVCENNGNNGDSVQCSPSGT
T1 chain 2: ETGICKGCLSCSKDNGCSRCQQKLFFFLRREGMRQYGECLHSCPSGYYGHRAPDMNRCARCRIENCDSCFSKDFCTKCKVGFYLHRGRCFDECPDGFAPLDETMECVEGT

B1: mouse ZNRF3 ectodomain (mZNRF3_(ecto)) (domain or fragment, UniProt Q5SSZ7 53-216, looked up)
chain: KETAFVEVVLFESSPSGDYTTHTTGLTGRFSRAGAMLSAEGEIVQMHPLGLCNNNDEEDLYEYGWVGVVKLEQPELDPKPCLTVLGKAKRAVQRGATAVIFDVSENPEAIDQLNQGSEDPLKRPVVYVKGADAIKLMNIVNKQKVARARIQHLPPRQPTEYFDM
notes: mouse ZNRF3 ectodomain; chain C of PDB 4C99 was the search model; source: produced as described (Zebisch et al., 2013); large scale mammalian expression, purified
B2: human LGR5 ectodomain variant (hLGR5_(ecto)), R32-S543 with the loop A488-H537 replaced by an NGNNGD linker (domain or fragment)
chain: T1 chain 1
notes: residues left by the vector pHLsec after removal of the signal peptide; human LGR5 ectodomain, R32 up to the residue before the replaced loop A488-H537; printed ends RGCPTH...FGVCEN; linker that replaces A488-H537; human LGR5 after the replaced loop; vector residues before the His10 tag; Cloned into pHLsec H10; not shown: His10, C-terminal, kept
B3: mouse R-spondin 2 Furin tandem repeat fragment (mRspo2_(Fu1-Fu2), I39-G144) (domain or fragment)
chain: T1 chain 2
notes: residues left by the vector after removal of the signal peptide; mouse R-spondin 2, Fu1-Fu2, I39-G144; printed ends ICKGCL...MECVEG; vector residue before the His10 tag; not shown: His10, C-terminal, kept

Experiments:
[1] = molecular target: the molecule itself; assay: crystal structure; approximately stoichiometric amounts of the hLGR5_(ecto)–mRspo2_(Fu1-Fu2) complex and mZNRF3_(ecto) mixed in 10 mM Tris/HCl pH 9.0, 1000 mM NaCl, 1.3 mg/ml; crystals in 100 mM ammonium acetate, 600 mM NaCl, 50 mM MES pH 6.0, 5 mM MgSO4; 4.8 Å, anisotropic; 2:2:2 complex generated by crystallographic symmetry
[2] = molecular target: T1, hLGR5_(ecto)–mRspo2_(Fu1-Fu2) complex, …; assay: as above; settings: both partners purified
[3] = molecular target: the molecule itself; assay: crystal structure; hLGR5_(ecto)–mRspo2_(Fu1-Fu2) complex from coexpression, 5.9 mg/ml; sitting drop; 25% (w/v) PEG 3350, 200 mM lithium sulphate, 100 mM bis-Tris pH 5.5; 2.2 Å; two copies of the complex in the asymmetric unit
[4] = molecular target: B3; assay: as above; settings: both partners purified
[5] = molecular target: B2; assay: as above; settings: both partners purified

**Q.** For B1, which “stoichiometry N” value [1] is on record?
**A.** The value was 2.

**Q.** And the “stoichiometry N” value [2]?
**A.** The value was 1.

**Q.** Which results are given for B2?
**A.** stoichiometry N [3]: 2; binding result [4]: binds

**Q.** B3 was tested. Which “stoichiometry N” value [5] did it give?
**A.** Its value is 1.
